According to patent US20150198603A1 (TORAY INDUSTRIES, published 2015):

What was measured:
[1] = target: T1, human CAPRIN-1 as expressed on human breast cancer cell line MDA-MB-231V and in human cancer tissues (human, UniProt Q14444 2-709); experiment: flow cytometry on MDA-MB-231V cells expressing CAPRIN-1
T1 construct: whole, on cells; Endogenous protein on cells (flow cytometry) or in paraffin tissue sections (immunohistochemistry); also called CAPRIN-1 on the surface of breast cancer cells; CAPRIN-1 in the breast cancer tissues
T1 sequence (looked up): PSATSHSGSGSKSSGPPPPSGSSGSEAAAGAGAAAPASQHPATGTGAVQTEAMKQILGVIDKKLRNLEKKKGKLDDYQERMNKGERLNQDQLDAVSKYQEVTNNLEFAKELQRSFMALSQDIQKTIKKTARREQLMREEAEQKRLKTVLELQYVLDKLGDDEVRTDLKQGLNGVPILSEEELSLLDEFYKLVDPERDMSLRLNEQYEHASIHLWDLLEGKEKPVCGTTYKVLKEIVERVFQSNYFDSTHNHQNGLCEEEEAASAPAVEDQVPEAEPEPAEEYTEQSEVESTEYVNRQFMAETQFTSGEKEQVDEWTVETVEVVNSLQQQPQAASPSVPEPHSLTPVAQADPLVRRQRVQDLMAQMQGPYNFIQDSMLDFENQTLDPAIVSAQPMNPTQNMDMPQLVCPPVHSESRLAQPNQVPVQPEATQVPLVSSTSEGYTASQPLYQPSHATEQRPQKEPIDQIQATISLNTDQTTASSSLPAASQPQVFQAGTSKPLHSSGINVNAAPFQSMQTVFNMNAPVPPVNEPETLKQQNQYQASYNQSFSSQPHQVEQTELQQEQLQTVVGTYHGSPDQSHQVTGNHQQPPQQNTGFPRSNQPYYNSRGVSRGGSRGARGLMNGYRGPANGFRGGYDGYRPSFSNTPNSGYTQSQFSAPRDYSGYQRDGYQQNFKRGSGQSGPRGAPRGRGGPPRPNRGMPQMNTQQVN
Description: Next, these monoclonal antibodies were screened for antibodies reactive with the surface of breast cancer cells expressing CAPRIN-1. Specifically, 5×10⁵ cells of a human breast cancer cell line MDA-MB-231V were centrifuged in a 1.5-mL microcentrifuge tube. 100 μL of the culture supernatant of each hybridoma obtained above was added thereto and left standing for 1 hour on ice. After washing with PBS, FITC-labeled goat anti-chicken IgG (H+L) antibodies (SouthernBiotech) diluted 30-fold with PBS containing 0.1% FBS were added thereto and left standing for 1 hour on ice. After washing with PBS, the fluorescence intensity was measured using FACSCalibur (Becton, Dickinson and Company). On the other hand, the same operation as above was performed using a medium for hybridoma culture to prepare a control sample. As a result, 1 monoclonal antibody (chicken anti-human CAPRIN-1 monoclonal antibody #11) having stronger fluorescence intensity than that of the control, i.e., reactive with the surface of breast cancer cells expressing CAPRIN-1, was selected.

[2] = target: T2, peptide consisting of the amino acid sequence shown in SEQ ID NO: 66 (partial CAPRIN-1 sequence) (human); experiment: told from the digestion and MS/MS experiment done with #12
T2 peptide: QQPQAASPSVPE
Description: The cancer cell surface-reactive mouse-chicken chimeric anti-human CAPRIN-1 monoclonal antibody #12 obtained in the paragraph (4) was used to identify a CAPRIN-1 epitope region recognized thereby. 100 μg of recombinant CAPRIN-1 proteins was dissolved in a […] dissolving buffer and reacted with the monoclonal antibody #12. To this solution, a digestive enzyme trypsin or chymotrypsin was added, followed by digestion reaction at a proper temperature. After the reaction, a protein G Sepharose carrier was added thereto, then reacted, and precipitated by centrifugation operation. After removal of the supernatant, the carrier was washed with a dissolving buffer and PBS and dissolved in 0.1% formic acid, and the supernatant was recovered. The recovered supernatant sample was applied to a reverse-phase column (HLB Extraction Cartridge (Waters-OASIS)) to obtain an antibody-free sample solution. The obtained sample was subjected to reverse-phase liquid chromatography (Chromatography Nanosytem (KYA Technologies Corp.)) to recover a solution containing only peptides. The solution was introduced to a tandem-type mass spectrometer Quadrupole-TOF Mass Spectrometer (Waters-MicroMass) and analyzed by MS/MS to detect the peptides contained in the sample. […]

[3] = target: T3, human CAPRIN-1 having the amino acid sequence shown in SEQ ID NO: 2 (recombinant, as prepared in Example 3 of … (human, UniProt Q14444 1-709)); experiment: ELISA, plate coated with 1 µg/mL CAPRIN-1, hybridoma supernatant
T3 construct: limits and tags of the recombinant construct are described only in WO2010/016526; also called recombinant CAPRIN-1; CAPRIN-1 solution
T3 sequence: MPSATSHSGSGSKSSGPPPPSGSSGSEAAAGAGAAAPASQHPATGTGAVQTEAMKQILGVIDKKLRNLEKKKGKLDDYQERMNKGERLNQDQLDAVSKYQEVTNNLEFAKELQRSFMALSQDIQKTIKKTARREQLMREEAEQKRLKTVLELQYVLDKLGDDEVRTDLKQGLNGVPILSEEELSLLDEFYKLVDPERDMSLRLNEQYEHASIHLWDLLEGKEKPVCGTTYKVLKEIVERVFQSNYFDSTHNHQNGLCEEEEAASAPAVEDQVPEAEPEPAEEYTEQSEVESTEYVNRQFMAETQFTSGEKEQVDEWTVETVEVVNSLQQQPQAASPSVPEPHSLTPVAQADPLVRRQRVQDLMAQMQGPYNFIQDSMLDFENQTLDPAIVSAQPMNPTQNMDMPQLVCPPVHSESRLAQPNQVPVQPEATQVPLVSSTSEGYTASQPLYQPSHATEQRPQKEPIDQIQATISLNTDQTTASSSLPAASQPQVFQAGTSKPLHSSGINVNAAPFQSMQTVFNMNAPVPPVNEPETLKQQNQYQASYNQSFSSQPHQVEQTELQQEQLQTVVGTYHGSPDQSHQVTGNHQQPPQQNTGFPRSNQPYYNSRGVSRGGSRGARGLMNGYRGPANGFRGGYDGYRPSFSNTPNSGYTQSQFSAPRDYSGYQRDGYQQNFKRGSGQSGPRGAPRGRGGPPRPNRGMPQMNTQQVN
Description: The prepared hybridomas were screened with the binding affinity of antibodies produced by the hybridomas against CAPRIN-1 as an indicator. The 1 μg/mL CAPRIN-1 solution was added to a 96-well plate at 100 μL/well and left standing at 4° C. for 18 hours. Each well was washed three times with PBS-T. Then, a 0.5% bovine serum albumin (BSA) solution (Sigma-Aldrich Corp.) was added thereto at 400 μL/well and left standing at room temperature for 3 hours. The solution in each well was discarded, and each well was washed three times with 400 μL of PBS-T. Then, the culture supernatant of each hybridoma obtained above was added thereto at 100 μL/well and left standing at room temperature for 2 hours. Each well was washed three times with PBS-T. Then, HRP-labeled anti-chicken IgY antibodies (Sigma-Aldrich Corp.) diluted 5000-fold with PBS were added thereto at 100 μL/well and left standing at room temperature for 1 hour. Each well was washed three times with PBS-T. Then, a TMB substrate solution (Thermo Fisher Scientific Inc.) was added thereto at 100 μL/well and left standing for 15 to 30 minutes to cause color reaction. […] The absorbance was measured at 450 nm and 595 nm using an absorption spectrometer. As a result, several hybridomas producing antibodies having high absorbance were selected as candidate lines of the hybridoma of interest.

Measured: binding result

B1: chicken anti-human CAPRIN-1 monoclonal antibody #11 (antibody, V domains shown)
VH: AVTLDESGGGLQMSRGGLSLVCKASGFDFSSYQMNWIRQAPGKGLEFVAAINKFGNSTGHGAAVKGRVTISRDNGQSTVRLQLNNLRAEDTAIYFCTKHAYGYCGSGTWCAAGEIDAWGHGTEVIVSS
VL: QAASTQPSSVSANPGETVEITCSGGGSYSYGWFQQKSPGSAPVTVIYYNNKRPSDIPSRFSGSKSGSTGTLTITGVQADDEAVYYCGSGDSTDTAVFGAGTTLTVLG
notes: Chicken hybridoma antibody; also called chicken monoclonal antibody #11
binds: all assays above
